Source: the RNAGym collection of RNA variant scans (doi:10.7554/elife.80360)

B1: Hairpin Ribozyme (parent)
chain: GUCCUCUUUCACGUGCGCGUGAAAGAGAGAAGUGAACCAGAGAAACACACGUUGUGGUAUAUUACCUGGUA

Variants of: B1
Experiment: self-cleavage, relative activity (ratio to wild type); higher = more cleavage; co-transcriptional

Variant | self-cleavage
GUCCUCUUUCACGUGCGCGUGAAAGAGAGAAGUGAACCAGCGAAACACACGUUUUGGUAUAUUACCUGGUA [A41C G54U] | 0.724
GUCCUCUUUCACGUGCGCGUGAAAGAGAGAAGUGAACCAGCGAAACACACGUUGUUGUAUAUUACCUGGUA [A41C G56U] | 0.0688
GUCCUCUUUCACGUGCGCGUGAAAGAGAGAAGUGAACCAGCGAAACACACGUUGUGAUAUAUUACCUGGUA [A41C G57A] | 0.128
GUCCUCUUUCACGUGCGCGUGAAAGAGAGAAGUGAACCAGCGAAACACACGUUGUGGUAUAUUACCUAGUA [A41C G68A] | 0.249
GUCCUCUUUCACGUGCGCGUGAAAGAGAGAAGUGAACCAGCGAAACACACGUUGUGGUAUAUUACCUCGUA [A41C G68C] | 0.225
GUCCUCUUUCACGUGCGCGUGAAAGAGAGAAGUGAACCAGCGAAACACACGUUGUGGUAUAUUACCUUGUA [A41C G68U] | 0.177
GUCCUCUUUCACGUGCGCGUGAAAGAGAGAAGUGAACCAGCGAAACACACGUUGUGGUAUAUUACCUGAUA [A41C G69A] | 0.524
GUCCUCUUUCACGUGCGCGUGAAAGAGAGAAGUGAACCAGCGAAACACACGUUGUGGUAUAUUACCUGCUA [A41C G69C] | 0.287
GUCCUCUUUCACGUGCGCGUGAAAGAGAGAAGUGAACCAGCGAAACACACGUUGUGGUAUAUUACCUGUUA [A41C G69U] | 0.341
GUCCUCUUUCACGUGCGCGUGAAAGAGAGAAGUGAACCAGCGAAACACACGCUGUGGUAUAUUACCUGGUA [A41C U52C] | 0.79
GUCCUCUUUCACGUGCGCGUGAAAGAGAGAAGUGAACCAGCGAAACACACGUAGUGGUAUAUUACCUGGUA [A41C U53A] | 0.786
GUCCUCUUUCACGUGCGCGUGAAAGAGAGAAGUGAACCAGCGAAACACACGUUGGGGUAUAUUACCUGGUA [A41C U55G] | 0.285
GUCCUCUUUCACGUGCGCGUGAAAGAGAGAAGUGAACCAGCGAAACACACGUUGUGGUAGAUUACCUGGUA [A41C U60G] | 0.998
GUCCUCUUUCACGUGCGCGUGAAAGAGAGAAGUGAACCAGCGAAACACACGUUGUGGUAUACUACCUGGUA [A41C U62C] | 0.329
GUCCUCUUUCACGUGCGCGUGAAAGAGAGAAGUGAACCAGCGAAACACACGUUGUGGUAUAUUACCAGGUA [A41C U67A] | 0.27
GUCCUCUUUCACGUGCGCGUGAAAGAGAGAAGUGAACCAGCGAAACACACGUUGUGGUAUAUUACCUGGCA [A41C U70C] | 1.04
GUCCUCUUUCACGUGCGCGUGAAAGAGAGAAGUGAACCAGGGACACACACGUUGUGGUAUAUUACCUGGUA [A41G A44C] | 0.109
GUCCUCUUUCACGUGCGCGUGAAAGAGAGAAGUGAACCAGGGAACCACACGUUGUGGUAUAUUACCUGGUA [A41G A45C] | 0.101
GUCCUCUUUCACGUGCGCGUGAAAGAGAGAAGUGAACCAGGGAAGCACACGUUGUGGUAUAUUACCUGGUA [A41G A45G] | 0.225
GUCCUCUUUCACGUGCGCGUGAAAGAGAGAAGUGAACCAGGGAAUCACACGUUGUGGUAUAUUACCUGGUA [A41G A45U] | 0.105
GUCCUCUUUCACGUGCGCGUGAAAGAGAGAAGUGAACCAGGGAAACACCCGUUGUGGUAUAUUACCUGGUA [A41G A49C] | 0.0938
GUCCUCUUUCACGUGCGCGUGAAAGAGAGAAGUGAACCAGGGAAACACACGUUGUGGUGUAUUACCUGGUA [A41G A59G] | 0.17
GUCCUCUUUCACGUGCGCGUGAAAGAGAGAAGUGAACCAGGGAAACACACGUUGUGGUAUAUUCCCUGGUA [A41G A64C] | 0.0864
GUCCUCUUUCACGUGCGCGUGAAAGAGAGAAGUGAACCAGGGAAACACACGUUGUGGUAUAUUUCCUGGUA [A41G A64U] | 0.206
GUCCUCUUUCACGUGCGCGUGAAAGAGAGAAGUGAACCAGGGAAAUACACGUUGUGGUAUAUUACCUGGUA [A41G C46U] | 0.0954
GUCCUCUUUCACGUGCGCGUGAAAGAGAGAAGUGAACCAGGGAAACAAACGUUGUGGUAUAUUACCUGGUA [A41G C48A] | 0.0982

Variant | self-cleavage
GUCCUCUUUCACGUGCGCGUGAAAGAGAGAAGUGAACCAGGGAAACACAGGUUGUGGUAUAUUACCUGGUA [A41G C50G] | 0.325
GUCCUCUUUCACGUGCGCGUGAAAGAGAGAAGUGAACCAGGGAAACACAUGUUGUGGUAUAUUACCUGGUA [A41G C50U] | 0.385
GUCCUCUUUCACGUGCGCGUGAAAGAGAGAAGUGAACCAGGGAAACACACGUUGUGGUAUAUUAGCUGGUA [A41G C65G] | 1.13
GUCCUCUUUCACGUGCGCGUGAAAGAGAGAAGUGAACCAGGUAAACACACGUUGUGGUAUAUUACCUGGUA [A41G G42U] | 0.236
GUCCUCUUUCACGUGCGCGUGAAAGAGAGAAGUGAACCAGGGAAACACACGUUGUCGUAUAUUACCUGGUA [A41G G56C] | 0.165
GUCCUCUUUCACGUGCGCGUGAAAGAGAGAAGUGAACCAGGGAAACACACGUUGUGGUAUAUUACCUAGUA [A41G G68A] | 0.55
GUCCUCUUUCACGUGCGCGUGAAAGAGAGAAGUGAACCAGGGAAACACACGAUGUGGUAUAUUACCUGGUA [A41G U52A] | 0.669
GUCCUCUUUCACGUGCGCGUGAAAGAGAGAAGUGAACCAGGGAAACACACGUUGAGGUAUAUUACCUGGUA [A41G U55A] | 0.228
GUCCUCUUUCACGUGCGCGUGAAAGAGAGAAGUGAACCAGGGAAACACACGUUGUGGGAUAUUACCUGGUA [A41G U58G] | 1.1
GUCCUCUUUCACGUGCGCGUGAAAGAGAGAAGUGAACCAGGGAAACACACGUUGUGGUAAAUUACCUGGUA [A41G U60A] | 0.761
GUCCUCUUUCACGUGCGCGUGAAAGAGAGAAGUGAACCAGGGAAACACACGUUGUGGUAUAGUACCUGGUA [A41G U62G] | 0.325
GUCCUCUUUCACGUGCGCGUGAAAGAGAGAAGUGAACCAGGGAAACACACGUUGUGGUAUAUAACCUGGUA [A41G U63A] | 0.328
GUCCUCUUUCACGUGCGCGUGAAAGAGAGAAGUGAACCAGGGAAACACACGUUGUGGUAUAUUACCAGGUA [A41G U67A] | 0.527
GUCCUCUUUCACGUGCGCGUGAAAGAGAGAAGUGAACCAGGGAAACACACGUUGUGGUAUAUUACCUGGAA [A41G U70A] | 0.97
GUCCUCUUUCACGUGCGCGUGAAAGAGAGAAGUGAACCAGUGCAACACACGUUGUGGUAUAUUACCUGGUA [A41U A43C] | 0.231
GUCCUCUUUCACGUGCGCGUGAAAGAGAGAAGUGAACCAGUGGAACACACGUUGUGGUAUAUUACCUGGUA [A41U A43G] | 0.0919
GUCCUCUUUCACGUGCGCGUGAAAGAGAGAAGUGAACCAGUGAUACACACGUUGUGGUAUAUUACCUGGUA [A41U A44U] | 0.161
GUCCUCUUUCACGUGCGCGUGAAAGAGAGAAGUGAACCAGUGAACCACACGUUGUGGUAUAUUACCUGGUA [A41U A45C] | 0.258
GUCCUCUUUCACGUGCGCGUGAAAGAGAGAAGUGAACCAGUGAAACCCACGUUGUGGUAUAUUACCUGGUA [A41U A47C] | 0.955
GUCCUCUUUCACGUGCGCGUGAAAGAGAGAAGUGAACCAGUGAAACACUCGUUGUGGUAUAUUACCUGGUA [A41U A49U] | 0.725
GUCCUCUUUCACGUGCGCGUGAAAGAGAGAAGUGAACCAGUGAAACACACGUUGUGGUUUAUUACCUGGUA [A41U A59U] | 0.241
GUCCUCUUUCACGUGCGCGUGAAAGAGAGAAGUGAACCAGUGAAACACACGUUGUGGUAUGUUACCUGGUA [A41U A61G] | 0.148
GUCCUCUUUCACGUGCGCGUGAAAGAGAGAAGUGAACCAGUGAAACACACGUUGUGGUAUUUUACCUGGUA [A41U A61U] | 0.399
GUCCUCUUUCACGUGCGCGUGAAAGAGAGAAGUGAACCAGUGAAACACACGUUGUGGUAUAUUACCUGGUU [A41U A71U] | 1.15
GUCCUCUUUCACGUGCGCGUGAAAGAGAGAAGUGAACCAGUGAAAUACACGUUGUGGUAUAUUACCUGGUA [A41U C46U] | 0.0994
GUCCUCUUUCACGUGCGCGUGAAAGAGAGAAGUGAACCAGUGAAACAAACGUUGUGGUAUAUUACCUGGUA [A41U C48A] | 0.31

Variant | self-cleavage
GUCCUCUUUCACGUGCGCGUGAAAGAGAGAAGUGAACCAGUGAAACAUACGUUGUGGUAUAUUACCUGGUA [A41U C48U] | 0.132
GUCCUCUUUCACGUGCGCGUGAAAGAGAGAAGUGAACCAGUGAAACACAAGUUGUGGUAUAUUACCUGGUA [A41U C50A] | 0.673
GUCCUCUUUCACGUGCGCGUGAAAGAGAGAAGUGAACCAGUGAAACACACGUUGUGGUAUAUUAGCUGGUA [A41U C65G] | 0.563
GUCCUCUUUCACGUGCGCGUGAAAGAGAGAAGUGAACCAGUAAAACACACGUUGUGGUAUAUUACCUGGUA [A41U G42A] | 0.321
GUCCUCUUUCACGUGCGCGUGAAAGAGAGAAGUGAACCAGUGAAACACACAUUGUGGUAUAUUACCUGGUA [A41U G51A] | 1.11
GUCCUCUUUCACGUGCGCGUGAAAGAGAGAAGUGAACCAGUGAAACACACGUUAUGGUAUAUUACCUGGUA [A41U G54A] | 1.03
GUCCUCUUUCACGUGCGCGUGAAAGAGAGAAGUGAACCAGUGAAACACACGUUGUCGUAUAUUACCUGGUA [A41U G56C] | 0.149
GUCCUCUUUCACGUGCGCGUGAAAGAGAGAAGUGAACCAGUGAAACACACGUUGUGGUAUAUUACCUAGUA [A41U G68A] | 0.504
GUCCUCUUUCACGUGCGCGUGAAAGAGAGAAGUGAACCAGUGAAACACACGGUGUGGUAUAUUACCUGGUA [A41U U52G] | 1.07
GUCCUCUUUCACGUGCGCGUGAAAGAGAGAAGUGAACCAGUGAAACACACGUAGUGGUAUAUUACCUGGUA [A41U U53A] | 1.28
GUCCUCUUUCACGUGCGCGUGAAAGAGAGAAGUGAACCAGUGAAACACACGUUGUGGUACAUUACCUGGUA [A41U U60C] | 1.24
GUCCUCUUUCACGUGCGCGUGAAAGAGAGAAGUGAACCAGUGAAACACACGUUGUGGUAUAUCACCUGGUA [A41U U63C] | 0.248
GUCCUCUUUCACGUGCGCGUGAAAGAGAGAAGUGAACCAGUGAAACACACGUUGUGGUAUAUGACCUGGUA [A41U U63G] | 0.223
GUCCUCUUUCACGUGCGCGUGAAAGAGAGAAGUGAACCAGUGAAACACACGUUGUGGUAUAUUACCCGGUA [A41U U67C] | 0.456
GUCCUCUUUCACGUGCGCGUGAAAGAGAGAAGUGAACCAGUGAAACACACGUUGUGGUAUAUUACCUGGCA [A41U U70C] | 1.42
GUCCUCUUUCACGUGCGCGUGAAAGAGAGAAGUGAACCAGAAAAACACACGUUGUGGUAUAUUACCUGGUA [G42A] | 0.223
GUCCUCUUUCACGUGCGCGUGAAAGAGAGAAGUGAACCAGAAGAACACACGUUGUGGUAUAUUACCUGGUA [G42A A43G] | 0.0927
GUCCUCUUUCACGUGCGCGUGAAAGAGAGAAGUGAACCAGAAACACACACGUUGUGGUAUAUUACCUGGUA [G42A A44C] | 0.27
GUCCUCUUUCACGUGCGCGUGAAAGAGAGAAGUGAACCAGAAAGACACACGUUGUGGUAUAUUACCUGGUA [G42A A44G] | 0.201
GUCCUCUUUCACGUGCGCGUGAAAGAGAGAAGUGAACCAGAAAUACACACGUUGUGGUAUAUUACCUGGUA [G42A A44U] | 0.207
GUCCUCUUUCACGUGCGCGUGAAAGAGAGAAGUGAACCAGAAAACCACACGUUGUGGUAUAUUACCUGGUA [G42A A45C] | 0.0962
GUCCUCUUUCACGUGCGCGUGAAAGAGAGAAGUGAACCAGAAAAACUCACGUUGUGGUAUAUUACCUGGUA [G42A A47U] | 0.0842
GUCCUCUUUCACGUGCGCGUGAAAGAGAGAAGUGAACCAGAAAAACACCCGUUGUGGUAUAUUACCUGGUA [G42A A49C] | 0.168
GUCCUCUUUCACGUGCGCGUGAAAGAGAGAAGUGAACCAGAAAAACACUCGUUGUGGUAUAUUACCUGGUA [G42A A49U] | 0.11
